The values below come from IntAct's records for PubMed 31515488.

Some targets named below: mlh1_human MLH1 (UniProt P40692); nmna1_human NMNAT1 (UniProt Q9HAN9); klhl2_human KLHL2 (UniProt O95198); hbaz_human HBZ (UniProt P02008); cep76_human CEP76 (UniProt Q8TAP6); itf2_human TCF4 (UniProt P15884); inca1_human INCA1 (UniProt Q0VD86); tcl1a_human TCL1A (UniProt P56279).
A further assay has as its target T1, neca2_human NECAB2 (UniProt Q7Z6G3).
T1 sequence: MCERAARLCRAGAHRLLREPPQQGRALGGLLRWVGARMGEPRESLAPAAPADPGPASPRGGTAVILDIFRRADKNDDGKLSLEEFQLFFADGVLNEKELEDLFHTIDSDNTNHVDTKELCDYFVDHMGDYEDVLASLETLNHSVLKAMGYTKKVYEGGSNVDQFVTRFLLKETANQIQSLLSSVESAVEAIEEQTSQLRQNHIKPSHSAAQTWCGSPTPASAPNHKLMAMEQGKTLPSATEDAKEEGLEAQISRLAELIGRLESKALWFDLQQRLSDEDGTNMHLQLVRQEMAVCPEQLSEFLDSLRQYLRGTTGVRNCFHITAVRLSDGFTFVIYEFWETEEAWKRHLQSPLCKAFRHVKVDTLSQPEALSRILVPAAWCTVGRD

The next assay concerns the target T2, magd1_human MAGED1 (UniProt Q9Y5V3).
T2 sequence: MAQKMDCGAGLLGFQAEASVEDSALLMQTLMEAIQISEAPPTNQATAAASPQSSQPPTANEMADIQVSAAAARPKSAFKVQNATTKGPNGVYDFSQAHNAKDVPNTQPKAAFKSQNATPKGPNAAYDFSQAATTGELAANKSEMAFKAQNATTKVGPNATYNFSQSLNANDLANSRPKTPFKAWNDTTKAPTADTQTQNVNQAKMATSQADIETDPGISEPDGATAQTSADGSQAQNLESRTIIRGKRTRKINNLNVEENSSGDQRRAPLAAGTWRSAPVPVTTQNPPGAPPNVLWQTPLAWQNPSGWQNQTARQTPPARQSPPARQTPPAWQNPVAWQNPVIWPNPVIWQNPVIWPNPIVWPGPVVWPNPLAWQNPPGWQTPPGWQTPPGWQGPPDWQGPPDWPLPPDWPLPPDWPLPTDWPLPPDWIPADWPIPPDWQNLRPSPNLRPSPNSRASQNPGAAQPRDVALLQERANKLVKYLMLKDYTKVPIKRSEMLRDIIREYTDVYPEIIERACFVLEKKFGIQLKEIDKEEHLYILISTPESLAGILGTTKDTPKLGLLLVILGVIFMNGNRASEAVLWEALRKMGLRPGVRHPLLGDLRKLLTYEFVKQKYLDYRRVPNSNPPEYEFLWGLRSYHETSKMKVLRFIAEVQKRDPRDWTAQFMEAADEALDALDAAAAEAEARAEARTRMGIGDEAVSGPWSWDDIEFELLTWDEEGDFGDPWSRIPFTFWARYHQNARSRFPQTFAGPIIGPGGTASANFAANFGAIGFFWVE

The target in a further assay is T3, srtd3_human SERTAD3 (UniProt Q9UJW9).
T3 sequence: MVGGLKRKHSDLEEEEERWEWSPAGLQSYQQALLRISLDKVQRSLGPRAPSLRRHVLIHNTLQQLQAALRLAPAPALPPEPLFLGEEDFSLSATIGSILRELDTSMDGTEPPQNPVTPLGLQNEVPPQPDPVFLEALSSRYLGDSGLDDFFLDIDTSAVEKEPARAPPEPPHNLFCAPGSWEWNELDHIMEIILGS

For the substance “Importin subunit alpha-1 (Homo sapiens) (from UniProt P52292) N86S”, the “effect of a mutation on the interaction” value in the assay with mlh1_human MLH1, with neca2_human NECAB2, with magd1_human MAGED1, with nmna1_human NMNAT1 and with srtd3_human SERTAD3 was “with no effect” each time.
In the case of “Zinc finger protein 114 (Homo sapiens), Q8NC26 H99N”, in the assay with klhl2_human KLHL2, the “effect of a mutation on the interaction” value is “with no effect”.
On to “Hemoglobin subunit beta (Homo sapiens), P68871 G57D”, for which the “effect of a mutation on the interaction” value with hbaz_human HBZ was “with no effect”.
With “Hemoglobin subunit beta (Homo sapiens), P68871 E102Q”, the “effect of a mutation on the interaction” value in the assay with hbaz_human HBZ is “disrupting interaction strength”.
On to “Hemoglobin subunit beta (Homo sapiens), P68871 V114E”, for which the “effect of a mutation on the interaction” value with hbaz_human HBZ is “disrupting interaction strength”.
In the case of “Zinc finger protein 114 (Homo sapiens), Q8NC26 K404E”, in the assay with klhl2_human KLHL2, the “effect of a mutation on the interaction” value is reported as “with no effect”.
Consider “Hemoglobin subunit beta (Homo sapiens), P68871 D100Y”, for which, in the assay with hbaz_human HBZ, the “effect of a mutation on the interaction” value is given as “disrupting interaction strength”.
Same read-out and setting: then “Hemoglobin subunit beta (Homo sapiens), P68871 T88P”, with “disrupting interaction strength”.
Take “Importin subunit alpha-1 (Homo sapiens) (from UniProt P52292) R117W”: the “effect of a mutation on the interaction” value in the assay with mlh1_human MLH1, with neca2_human NECAB2, with magd1_human MAGED1, in the assay with nmna1_human NMNAT1 and in the assay with srtd3_human SERTAD3 was “with no effect” throughout.
For “Calcium-binding protein 5 (Homo sapiens), Q9NP86 G73S”, the “effect of a mutation on the interaction” value with cep76_human CEP76, with itf2_human TCF4 and with inca1_human INCA1 was “with no effect” throughout.
In the case of “Hemoglobin subunit beta (Homo sapiens), P68871 E7K”, the “effect of a mutation on the interaction” value with hbaz_human HBZ is reported as “disrupting interaction strength”.
As to “Hemoglobin subunit beta (Homo sapiens), P68871 S10C”, the “effect of a mutation on the interaction” value in the assay with hbaz_human HBZ is “disrupting interaction strength”.
For the substance “Zinc finger protein 114 (Homo sapiens), Q8NC26 Q357P”, in the assay with klhl2_human KLHL2, the “effect of a mutation on the interaction” value is given as “with no effect”.
As to “Hemoglobin subunit beta (Homo sapiens), P68871 E122V”, the “effect of a mutation on the interaction” value with hbaz_human HBZ is “disrupting interaction strength”.
Turning to “Hemoglobin subunit beta (Homo sapiens), P68871 H118Y”, the “effect of a mutation on the interaction” value with hbaz_human HBZ was “disrupting interaction strength”.
With “"DNA (cytosine-5)-methyltransferase 3A" (Homo sapiens) (from UniProt Q9Y6K1) E30A”, the “effect of a mutation on the interaction” value with tcl1a_human TCL1A is listed as “with no effect”.
With “Calcium-binding protein 5 (Homo sapiens), Q9NP86 V128A”, the “effect of a mutation on the interaction” value with cep76_human CEP76, with itf2_human TCF4 and with inca1_human INCA1 was “with no effect” in each case.
Turning to “Importin subunit alpha-1 (Homo sapiens) (from UniProt P52292) R117Q”, the “effect of a mutation on the interaction” value with mlh1_human MLH1, in the assay with neca2_human NECAB2, with magd1_human MAGED1, with nmna1_human NMNAT1 and in the assay with srtd3_human SERTAD3 was “with no effect” in each case.
